Measurements published in US20210292393A1 (published 2021).

B1: antibody 409 (antibody, V domains shown)
VH: QVTLRESGPALVKPTQTLTLTCTFSGFSLSTSGMCVSWIRQPPGKALEWLALIDWDDDKYYSTSLKTRLTISKDTSKNQVVLTMTNMDPVDTATYYCARTTYYYVSGRRAEFDPWGQGTLVTVSS
VL: NFMLTQPHSVSESPGKTVTISCTGSSGSIASNYVQWYQQRPGSAPTTVIYEDNQRPSGVPDRFSGSIDSSSNSASLTISGLKTEDEADYYCQSYDSSNQGVFGGGTKLTVL
B2: antibody 380 (antibody, V domains shown)
VH: QVQLVESGGGVVQPGRSLRLSCAASGFTLKNYGMHWVRQAPGKGLEWVIVLSFDGSDEYKADSVRGRFTVSRDNSKNTLFLQMNSLRPDDTAVYYCAREQPTMIEGGRGPFDIWGQGTMVTVSS
VL: EVVMTQSPATLSVSPGDRATLSCRASQGVNSNLAWYQQKPGQAPRLLIYAASTRATGIPARFSASGSGTHFTLTISSLQSEDFAVYYCLQYNNWPPWTFGQGTKLEIK
B3: antibody 372 (antibody, V domains shown)
VH: QVQLVESGGGVVQPGRSLRLSCAASGFTFSSYAMHWVRQAPGKGLEWVAVISYDGSNKYYADSVKGRFTISRDNSKNTLYLQMNSLRAEDTAVYYCARDLGTSALLWFGELFLNYGMDVWGQGTTVTVSS
VL: QSALTQPRSVSGSPGQSVTISCTGTSSDVGGYNYVSWYQQHPGKAPKLMIYDVSKRPSGVPDRFSGSKSGNTASLTISGLQAEDEADYYCCSYAGSPILVFGGGTKLTVL
B4: antibody 405 (antibody, V domains shown)
VH: not shown
VL: QSALTQPRSVSGSPGQSVTISCTGTSSDVGGYNYVSWYQQHPGKAPKLMIYDVSKRPSGVPDRFSGSKSGNTASLTISGLQAEDEADYYCCSYAGSYNVVFGGGTKLTVL
B5: antibody 385 (antibody, V domains shown)
VH: QVQLVESGGGVVQPGRSLRLSCAASGFTFSSYAIHWVRQAPGKGLEWVAVISYDGSNKYYADSVKGRFTISRDNSKNTLYLQMNSLRAEDTAVYYCARPRSGSYWGAFDIWGQGTMVTVSS
VL: QSVLTQPPSVSGAPGQRVTISCTGSSSNIGARYDVHWYQQLPGTAPKLLIYGNSNRPSGVPDRFSGSKSGTSASLAITGLQAEDEADYYCQSYDSSLRGVFGGGTKLTVL
B6: antibody 407 (antibody, V domains shown)
VH: QVQLVESGGGVVQPGRSLRLSCAASGFTFSSYGMHWVRQAPGKGLEWVAVISYDGSNKYYADSVKGRFTISRDNSKNTLYLQMNSLRAEDTAVYYCAKCGWDYDFWVGQGYGMDVWGQGTTVTVSS
VL: not shown
B7: antibody 378 (antibody, V domains shown)
VH: QVQLVQSGAEVKKPGASVKVSCKASGYTFTSYYMHWVRQAPGQGLEWMGIINPSGGSTSYAQKFQGRVTMTRDTSTSTVYMELSSLRSEDTAVYYCARDSGGMDDFWSGYYSPGGDYWGQGTLVTVSS
VL: QSALTQPASVSGSPGQSITISCTGTSSDVGSYNLVSWYQQHPGKAPKLMIYEGSKRPSGVSNRFSGSKSGNTASLTISGLQAEDEADYYCCSYAGSSTWVFGGGTKLTVL
B8: antibody 367 (antibody, V domains shown)
VH: QVQLVQSGAEVKKPGASVKVSCKASGYTFTGYYIHWVRQAPGQGLEWMGWINPNSGGTIYAQKFQGRVTMTRDTSISTAYMELSRLTSDDTAVYSCAREPYYDILTGYYAPRRYFDYWGQGTLVTVSS
VL: QSALTQPASVSGSPGQSITISCTGTSSDVGSYNYVSWYLQHPGKAPKLMIYDVSNRPSGVSNRFSGSKSGNTASLTISGLQAEDEADFYCSSYTSRSTYVFGTGTKVTVL
B9: antibody 365 (antibody, V domains shown)
VH: QVQLVESGGGVVQPGRSLRLSCAASGFNLSSYAMHWVRQASGKGLEWVSLISYDGSIKYYTDSVKGRFTVSGDNSKNTLFLQMNSLRPDDSALYYCVRGGVSGPNSFDMWGQGTTVTVSS
VL: DVVMTQSPLSLPVTLGQPASISCRSSQSLVYSDGNTYVNWFQQRPGQSPRRLIYKVSIRASGVPDRFSGSGSGTDFALKISRVEAEDVGVYYCMQGTHWPVTFGQGTKVEIK
B10: antibody 395 (antibody, V domains shown)
VH: QVQLVQSGSELKKPGASVKLSCQASGYTFSNHAMNWVRQAPGQGLEWMGWINTNTGNPTYAQGFTGRFVFSLDTSVGTAYLHISSLKAEDTAFYYCARASARPGVATNLDFWGQGTLVVVSS
VL: DIQMTQSPSSLSASVGDRVTITCRTSQNIDNYLNWYQQKPGKAPNLLIYAASRLHSGVPSRFSGSGSGTDFTLIISSLQPEDLATYYCQQSYSNPLTFGPGTKVDIR
B11: antibody 366 (antibody, V domains shown)
VH: QVQLVESGGGVVQPGRSLRLSCAASGFTFSSYAMHWVRQAPGKGLEWVAVISYDGSNKYYADSVKGRFTISRDNSKNTLYLQMNSLRAEDTAVYYCARGLVGYNWFDPWGQGTLVTVSS
VL: DIQMTQSPSSVSASVGDRVTITCRASQGISSWLAWYQQKPGKAPKLLIYAASSLQSGVPSRFSGSGSGTDFTLTISSLQPEDFATYYCQQANSFTFGPGTKVDIK
B12: antibody 480 (antibody, V domains shown)
VH: QVQLVESGGGVVQPGRSLRLSCAASGFTFSSYAMHWVRQAPGKGLEWVAVISYDGNNKYYADSVKGRFTISRDNSKNTLYLQMNSLRAEDTAVYYCVRTNSGSYYAAFDYWGQGTLVTVSS
VL: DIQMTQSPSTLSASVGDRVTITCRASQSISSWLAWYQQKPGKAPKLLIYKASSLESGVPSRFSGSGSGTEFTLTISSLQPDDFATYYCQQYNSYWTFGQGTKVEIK
B13: antibody 482 (antibody, V domains shown)
VH: EVQLVESGGGLVQPGGSLRLSCAASGFTFSSYWMTWVRQAPGKGLEWVANIKQDGSEKYYVDSVKGRFTISRDNAKNSLYLQMNSLRAEDTAVYYCARGVGSWYLGFDYWGQGTLVTVSS
VL: NFMLTQPHSVSESPGKTVTISCTGSSGSIASNYVQWYQQRPGSAPTTVIYEDNQRPSGVPDRFSGSIDSSSNSASLTISGLKTEDEADYYCQSYDGSSYVFGTGTKVTVL
B14: antibody 560 (antibody, V domains shown)
VH: EVQLVESGGGLVQPGGSLRLSCAASGFTISSNYMSWVRQAPGKGLEWVSVIYSGGSTYYADSVKGRFTISRDNSKNTLYLQMNSLRAEDTAVYYCAREEGEWEKDYYGMDVWGQGTTVTVSS
VL: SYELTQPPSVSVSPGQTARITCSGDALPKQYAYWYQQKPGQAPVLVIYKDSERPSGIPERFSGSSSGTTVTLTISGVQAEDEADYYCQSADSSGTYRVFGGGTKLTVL
B15: antibody 569 (antibody, V domains shown)
VH: QVQLVESGGGVVQPGRSLRLSCAASGFTFSSYAMHWVRQAPGKGLEWVAVISYDGSNKYYADSVKGRFTISRDNSKNTLYLQMNSLRAEDTAVYYCARASSGGYQGPFDPWGQGTLVTVSS
VL: EIVLTQSPATLSLSPGERATLSCRASQSVSSYLAWYQQKPGQAPRLLIYDASNRATGIPARFSGSGSGTDFTLTISSLEPEDFAVYYCQQRSSPFGPGTKVDIK
B16: antibody 548 (antibody, V domains shown)
VH: QVQLVESGGGVVQPGRSLRLSCAASGFTFSSYAMHWVRQAPGKGLEWVAVISYDGSNKYYADSVKGRFTISRDNSKNTLYLQMNNLRAEDTAVYYCAKSGSGSYLSAFDIWGQGTMVTVSS
VL: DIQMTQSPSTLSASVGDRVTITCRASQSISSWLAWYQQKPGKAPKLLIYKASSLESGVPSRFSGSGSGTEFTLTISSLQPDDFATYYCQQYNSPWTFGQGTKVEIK
B17: antibody 563 (antibody, V domains shown)
VH: QVQLVESGGGVVQPGRSLRLSCAASGFTFSSYAMHWVRQAPGKGLEWVAVISDDGSNKYYADSVKGRFTISRDNSKNTLYLQMNSLRAEDTAVYYCARDIVATIRRLFDYWGQGTLVTVSS
VL: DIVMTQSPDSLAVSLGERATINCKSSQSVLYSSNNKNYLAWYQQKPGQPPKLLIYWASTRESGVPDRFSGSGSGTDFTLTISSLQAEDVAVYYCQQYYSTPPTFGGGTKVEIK
B18: antibody 564 (antibody, V domains shown)
VH: QVHLVESGGGVVQPGKSLRLSCAASGFIFSSFGMHWVRQPPGKGLEWLAVVSYDGSVTKYSDSFEGRFTISRDNSKNTLYLQMDSLRPEDTAVYYCAKGQGTNLLHYWGQGILVTVSS
VL: DVVLSQSPLSLPVTLGQPASISCRSSESLVYTDGDTYLHWFHQRPGQSPRRLIFKVSHRESGVPDRISGSGSGTDFTLKISRVEAEDVGVYYCMQGTHWPFTFGPGTKVDIK
B19: antibody 565 (antibody, V domains shown)
VH: EVQLVESGGGLVQPGGSLRLSCTASGFTLSDHYMDWVRQAPGKGLEWVARTRNKVNSYSTEYAASVKGRFSMSRDDSKNSLYLQMTRLQTDDTAVYYCARSLMILGARGASDYWGQGTLVTVSS
VL: DIQMTQSPSTLSASAGDRVTITCRASQNIDSWLAWYQQHPGKAPNLLIYKASFLQSGVPSRFSGSGSGTEFTLTISSLQPDDFATYYCQQYNSYPVTFGQGTRLEIK
B20: antibody 556 (antibody, V domains shown)
VH: QVQLVESGGGVVQPGRSLRLSCAASGFTFSSYAMHWVRQAPGKGLEWVAVISYDGSDKYYADSVKGRVTISRDNSKNTLYLQMNSLRVEDTAVFYCAKDDCSGGVCFPDYWGQGTLVTVSS
VL: QSALTQPASVSGSPGQSITISCTGTSSDVGGYNYVSWYQQHPGKAPKLMIYEVSIRPSGVSNRFSGSKSGNTASLTISGLQAEDEAAYYCSSYTSSSTLVFGGGTKLTVL
B21: antibody 547 (antibody, V domains shown)
VH: QVHLVESGGGVVQPGRSLRLSCAASGFALSSYAMHWVRQPPGKGLEWVALISYDGSVKKYADSVKGRITVSGDNSRNTLHLQINSLRADDTAVYYCVRGGVSGPNSFDLWGHGTMVTVSS
VL: DVVLTQSPLSLPVTLGQPASISCRSSQSLEYSVGNTYVNWFQQRPGQSPRRLIYKVSNRDSGVPDRFSGSGSGTDFTLQISRVEADDVGIYYCMQGTHWPVTFGQGTKVEIK
B22: antibody 566 (antibody, V domains shown)
VH: QVQLVQSGAEVKKPGASVKVSCKASGYTFTSYAMHWVRQAPGQRLEWMGWINAGNGNTKYSQKFQGRVTITRDTSASTAYMELSSLRSEDTAVYYCARDLGVAVTLHPADFDYWGQGTLVTVSS
VL: QSVLTQPPSVSGAPGQRVTISCTGSSSNIGAGYDVHWYQQLPGTAPKLLIYDNSNRPSGVPDRFSGSKSGTSASLAITGLQAEDEADYYCQSYDSSLSAVVFGGGTKLTVL

target: SARS-CoV-2 full length spike protein (wild type), conjugated to beads (SARS-CoV-2, UniProt P0DTC2 14-1208)

First: B1
Second: B2
The “binding signal, bead assay” value of the first is higher: 552 fold over isotype for the first, 1.15 fold over isotype for the second.

First: B3
Second: B4
The “binding signal, bead assay” value of the first is higher: 823 fold over isotype for the first, 487 fold over isotype for the second.

Compared with B5, B6 is higher in “binding signal, bead assay” value: 602 fold over isotype for the first, 785 fold over isotype for the second.

Compared with B7, B8 is higher in “binding signal, bead assay” value: 526 fold over isotype for the first, 1090 fold over isotype for the second.

Compared with B9, B10 is higher in “binding signal, bead assay” value: 533 fold over isotype for the first, 592 fold over isotype for the second.

With B11 the “binding signal, bead assay” value was 553 fold over isotype.

target: SARS-CoV-2 full length spike protein (wild type), expressed on the surface of transiently transfected CHO … (SARS-CoV-2, UniProt P0DTC2 14-1273)

Going from B12 to B13, the “median fluorescence intensity, fold over isotype control” value (from here on “median fluorescence intensity, fold”) falls from 9.77 fold over isotype to 2.31 fold over isotype.

target: SARS-CoV-2 full length spike (S) protein, wild type, expressed on the surface of CHO cells (SARS-CoV-2, UniProt P0DTC2 14-1273)

First: B14
Second: B15
The “median fluorescence intensity, fold” value of the first is higher: 22.8 fold over isotype for the first, 8.78 fold over isotype for the second.

Going from B16 to B17, the “median fluorescence intensity, fold” value rises from 9.26 fold over isotype to 9.67 fold over isotype.

Going from B18 to B19, the “median fluorescence intensity, fold” value falls from 10.8 fold over isotype to 1.11 fold over isotype.

Going from B20 to B21, the “median fluorescence intensity, fold” value rises from 7.59 fold over isotype to 10.6 fold over isotype.

In the case of B22, the “median fluorescence intensity, fold” value is reported as 31.5 fold over isotype.
